The experiment deals with GnRH-AIF chimeric protein. As to the kind of experiment: co-IP; anti-AIF antibody (ab32516) on Protein A/G beads; nuclear fractions of Colo205 cells treated with GnRH-AIF (1 µM) or PBS for 24 h; overnight at 4 °C, washed with PBS; blots with anti-ENDOG and anti-AIFM1.

B1: endonuclease G (enzyme)
chain: AELPPVPGGPRGPGELAKYGLPGLAQLKSRESYVLCYDPRTRGALWVVEQLRPERLRGDGDRRECDFREDDSVHAYHRATNADYRGSGFDRGHLAAAANHRWSQKAMDDTFYLSNVAPQVPHLNQNAWNNLEKYSRSLTRSYQNVYVCTGPLFLPRTEADGKSYVKYQVIGKNHVAVPTHFFKVLILEAAGGQIELRTYVMPNAPVDEAIPLERFLVPIESIERASGLLFVPNILARAGSLKAITAGSK
B1 yielded a fold increase of co-precipitated ENDOG, cells treated with GnRH-AIF against PBS control of 1.6 fold.
